The record followed here is US20240301031A1 (JIANGSU HENGRUI PHARMACEUTICALS, published 2024).

Sequences and labels used below:
B1: TACI-9-15Fc6 fusion protein (Fc fusion)
chain: STSCREEQGEFYDHLLRDCISCASICGQHPKQCAAFCEEPKSSDKTHTCPPCPAPEAEGAPSVFLFPPKPKDTLMISRTPEVTCVVVDVSHEDPEVKFNWYVDGVEVHNAKTKPREEQYNSTYRVVSVLTVLHQDWLNGKEYKCKVSNKALPSSIEKTISKAKGQPREPQVYTLPPSRDELTKNQVSLTCLVKGFYPSDIAVEWESNGQPENNYKTTPPVLDSDGSFFLYSKLTVDKSRWQQGNVFSCSVMHEALHNHYTQKSLSLSPGK
notes: Full-length chain
B2: TACI-9-15Fc8 fusion protein (Fc fusion)
chain: STSCREEQGEFYDHLLRDCISCASICGQHPKQCAAFCEEPKSSDKTHTCPPCPAPEAEGAPSVFLFPPKPKDTLMISRTPEVTCVVVDVSHEDPEVKFNWYVDGVEVHNAKTKPREEQYNSTYRVVSVLTVLHQDWLNGKEYKCKVSNKALPSSIEKTISKAKGQPREPQVYTLPPSRDELTKNQVSLTCLVKGFYPSDIAVEWESNGQPENNYKTTPPVLDSDGSFFLYSKLTVDKSRWQQGNVFSCSVMHEALHNHYTQKSLSLSPGGGGSSTSCREEQGEFYDHLLRDCISCASICGQHPKQCAAFCESK
notes: Full-length chain
B3: TACI-9-15Fc9 fusion protein (Fc fusion)
chain: B2 chain with K313S
notes: Full-length chain
B4: TACI-9-15Fc7 fusion protein (Fc fusion)
chain: B2 chain with S312Q
notes: Full-length chain

Numbering of substitutions follows the chain as printed.

The first assay addresses BAFF (R&D Systems, 7537-BF) (UniProt Q9Y275 134-285). Nature of the assay: cell-based or functional assay.
In the case of B1, the “IC50 (nM) for the inhibition of the BAFF-induced B cell proliferation” value worked out at 0.0481 nM.

On to B2, for which the “IC50 (nM) for the inhibition of the BAFF-induced B cell proliferation” value stood at 0.0291 nM.

In the case of B3, the “IC50 (nM) for the inhibition of the BAFF-induced B cell proliferation” value amounted to 0.0262 nM.

As to B4, the “IC50 (nM) for the inhibition of the BAFF-induced B cell proliferation” value came to 0.0244 nM.

In the next assay the target is T1, human APRIL (5860-AP-010/CF, R&D Systems) (human, UniProt O75888 115-250, limits assumed).
T1 sequence (looked up): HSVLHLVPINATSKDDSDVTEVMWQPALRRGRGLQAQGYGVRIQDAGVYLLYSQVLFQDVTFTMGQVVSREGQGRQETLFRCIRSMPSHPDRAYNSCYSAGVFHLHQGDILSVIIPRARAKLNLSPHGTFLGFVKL
Put plainly: cell-based or functional assay.
Take B1: the “IC50 (nM) for the inhibition of the APRIL-induced B cell proliferation” value was 0.14 nM.

As to B2, the “IC50 (nM) for the inhibition of the APRIL-induced B cell proliferation” value came out at 0.00477 nM.

Turning to B3, the “IC50 (nM) for the inhibition of the APRIL-induced B cell proliferation” value amounted to 0.00947 nM.

In the case of B4, the “IC50 (nM) for the inhibition of the APRIL-induced B cell proliferation” value was 0.00481 nM.

In a further assay the target is T2, human BAFF (10056-HNCH, Sino biological) (human, UniProt Q9Y275 134-285).
T2 construct: Bought protein
Nature of the assay: competition ELISA: biotin-labeled BAFF to coated BAFF-R. The procedure:
The blocking activity of the antibodies and the fusion proteins for receptors and ligands such as BAFF/BAFF-R, BAFF/BCMA, BAFF/TACI, APRIL/BCMA, APRIL/TACI, and p40/IL-12R1 was assayed by the ELISA method. The specific procedures were as follows:
A receptor protein was diluted to 2 μg/mL with PBS at pH 7.4 (BasalMedia, B320) and added to a 96-well microplate (Corning, 3590) at 100 μL/well. The plate was incubated at 4° C. overnight. After the liquid was discarded, 200 μL of 1% Casein blocking solution (Thermo, 37528) was added to each well for blocking, and the plate was incubated at 37° C. for 2 h. After the blocking was completed, the blocking solution was discarded, and the plate was washed 3 times with a PBST buffer (PBS at pH 7.4 containing 0.1% tween-20) for later use. A biotin-labeled ligand protein at a fixed concentration was mixed with the antibody or fusion protein diluted in gradient, pre-incubated at 37° C. for 30 min, and added to a blocked microplate. The plate was incubated at 37° C. for 1.5 h. After the incubation was completed, the plate was washed 3 times with PBST. 100 μL of streptavidin-HRP (Invitrogen, 434323, diluted at a ratio of 1:4000) was added to each well, and the plate was incubated at 37° C. for 1 h. The supernatant was removed, and the plate was washed 3 times with PBST. 100 μL of TMB chromogenic substrate (KPL, 5120-0077) was added to each well, and the plate was incubated at room temperature for 10-15 min. The reaction was stopped by adding 50 μL of 1 M H₂SO₄ to each well. The plate was read for absorbance values at 450 nm on a microplate reader, the curves for the inhibition of the binding of the ligands to the receptors were fitted with software, and the IC₅₀ values were calculated.
On the technique in general: In an ELISA, binding on a coated surface is turned into a signal by an enzyme label.
The term IC50 denotes the point on the concentration scale where inhibition reaches its midpoint. Take B1: the half-inhibitory concentration (IC50) was determined as 1870 pM.

In the case of B2, the IC50 is 1560 pM.

Regarding B3, the IC50 was 1180 pM.

For B4, the half-inhibitory concentration (IC50) was 1380 pM.

For another assay, the target named is T3, BAFF (ACROBiosystems, BAF-H5248) (UniProt Q9Y275 134-285).
T3 construct: Bought protein used in the ELISA with coated test sample
Nature of the assay: ELISA, fusion protein coated, BAFF titrated, Anti-His-HRP. The procedure: The binding activity of the TACI fusion proteins for BAFF and APRIL was assayed by the ELISA method (coating a test fusion protein sample). The specific procedures were as follows:
The test sample was diluted to 2 μg/mL with a PBS (BasalMedia, B320) buffer at pH 7.4 and added to a 96-well microplate (Corning, 3590) at 100 μL/well. The plate was incubated at 4° C. overnight. After the liquid was discarded, 300 μL of 5% skim milk (BD, 232100) diluted with PBS was added to each well for blocking, and the plate was incubated at 37° C. for 2 h. After the blocking was completed, the blocking solution was discarded, and the plate was washed 3 times with a PBST buffer (PBS at pH 7.4 containing 0.1% tween-20). 100 μL of BAFF (ACROBiosystems, BAF-H5248) or APRIL (R&D Systems, 5860-AP-010/CF) diluted in a gradient was added to each well, and the plate was incubated at 37° C. for 1 h. After the incubation, the plate was washed 3 times with PBST. When detecting the binding to BAFF, 100 μL of Anti-His-HRP (Sino biological, 105327-MM02T-H, diluted at a ratio of 1:2000) was added to each well; when detecting the binding to APRIL, 100 μL of anti-HA-HRP (Abcam, ab1190, diluted at a ratio of 1:4000) was added to each well. The plate was incubated at 37° C. for 1 h. The plate was washed 3 times with PBST. 100 μL of TMB chromogenic substrate (KPL, 5120-0077) was added to each well, and the plate was incubated at room temperature for 10-15 min. The reaction was stopped by adding 50 μL of 1 M H₂SO₄ to each well. The plate was read for absorbance values at 450 nm on a microplate reader, the binding curves of the antibodies to an antigen were fitted with software, and the EC₅₀ values were calculated.
In general, EC50 refers to the concentration giving half of the maximal effect. Consider B1, for which the EC50 was determined as 8480 pM.

In the case of B2, the concentration giving a half-maximal response (EC50) worked out at 10500 pM.

In turn, B3 registered an EC50 of 8940 pM.

For the molecule B4, the EC50 was 8950 pM.
